Experimental data: US20250382376A1 (FUDAN UNIVERSITY, published 2025)
Residue numbers refer to the chain shown, from its start. One block for each binder: values may come before it.

Assays:
[1] = target: T1, CD73 on the surface of human cells (human, UniProt P21589 27-549); assay: flow cytometry on SW1573 cells
T1 construct: whole, on cells; The cell line of each value is named under assay or readout; also called CD73 on the surface of tumor cells; CD73 enzyme on the surface of MDA-MB-231 cells
T1 sequence (looked up): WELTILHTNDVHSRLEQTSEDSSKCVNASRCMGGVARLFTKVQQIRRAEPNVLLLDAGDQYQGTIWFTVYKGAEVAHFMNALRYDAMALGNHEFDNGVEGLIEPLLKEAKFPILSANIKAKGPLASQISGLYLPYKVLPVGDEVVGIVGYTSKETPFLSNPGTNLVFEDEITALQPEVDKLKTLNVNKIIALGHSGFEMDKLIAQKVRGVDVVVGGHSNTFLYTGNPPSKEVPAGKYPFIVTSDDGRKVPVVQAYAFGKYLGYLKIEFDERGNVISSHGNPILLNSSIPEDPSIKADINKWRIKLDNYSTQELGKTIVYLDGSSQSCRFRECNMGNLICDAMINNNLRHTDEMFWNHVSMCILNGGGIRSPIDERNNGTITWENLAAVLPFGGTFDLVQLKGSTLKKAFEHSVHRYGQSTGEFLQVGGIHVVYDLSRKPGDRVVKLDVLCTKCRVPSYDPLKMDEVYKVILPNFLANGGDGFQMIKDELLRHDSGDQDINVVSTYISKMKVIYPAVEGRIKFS
Method: (§1) 100 μL of the test antibodies diluted from 10 μg/mL to 0.016 μg/mL in a 5-fold gradient were used as the primary antibodies, and were mixed with 1×10⁵ tumor cells suspended in 100 μL RPMI-1640 serum-free medium to make a final concentration of 5 μg/mL diluted to 0.008 μg/mL, and then incubated at 4° C. for 1 h. The cells were washed twice with PBS to remove unbound primary antibodies, and then the target cells were incubated with 200 μLPE-labeled secondary antibody at 2 μg/mL at 4° C. for 30 min. The cells were washed twice with PBS to remove unbound secondary antibodies, and finally the cells were resuspended in 200 μL PBS. The binding affinity of the test antibodies to CD73 on the surface of the corresponding cells was measured by flow cytometry.

[2] = target: T2, extracellular domain of human CD73 protein, C-terminus polyhistidine-tagged (human, UniProt P21589 27-547); assay: ELISA, coated CD73-ECD, method of Example 3
T2 construct: also the immunogen; also called CD73-ECD; human CD73-ECD
T2 sequence: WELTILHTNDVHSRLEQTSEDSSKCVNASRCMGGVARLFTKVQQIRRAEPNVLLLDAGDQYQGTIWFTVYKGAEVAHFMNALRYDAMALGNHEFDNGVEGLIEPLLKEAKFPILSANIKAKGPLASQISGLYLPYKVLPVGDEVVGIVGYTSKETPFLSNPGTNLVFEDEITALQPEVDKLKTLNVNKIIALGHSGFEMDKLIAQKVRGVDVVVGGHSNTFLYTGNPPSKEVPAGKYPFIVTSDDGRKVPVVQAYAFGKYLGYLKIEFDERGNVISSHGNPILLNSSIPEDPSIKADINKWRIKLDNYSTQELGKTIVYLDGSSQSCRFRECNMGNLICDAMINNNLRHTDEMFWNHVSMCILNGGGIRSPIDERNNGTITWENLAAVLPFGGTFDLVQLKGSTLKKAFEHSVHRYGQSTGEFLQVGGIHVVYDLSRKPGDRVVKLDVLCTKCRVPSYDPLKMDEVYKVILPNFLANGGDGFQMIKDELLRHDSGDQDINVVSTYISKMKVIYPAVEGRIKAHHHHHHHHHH
Method: (§2) The CD73 protein extracellular region (CD73-ECD) was diluted to 1 μg/mL using the coating solution, and an ELISA plate was coated at 100 μL/well at 4° C. overnight. Excess antigens were washed away, and the plate was blocked with 1% BSA at room temperature for 2 hours. Then, 5-fold gradient dilutions of each monoclonal antibody were added at 100 μL/well and incubated at room temperature for 1 hour. Unbound antibodies were washed away, and an appropriate concentration of Staphylococcal protein A labeled with horseradish peroxidase was added at 100 μL/well and incubated at room temperature for 0.5 hours. Unbound secondary antibodies were washed away, and TMB color development solution was added to react for about 15 minutes. 1M HCL was added at 50 µL/well to terminate the color development reaction, and then the absorbance was measured at 450 nm and the data was analyzed.
(§3) Based on the above mutants, 5-E11ASCS was designed and prepared, and the CD73 antigen ELISA binding affinity test was performed according to the method of Example 3.

[3] = target: T2, extracellular domain of human CD73 …; assay: ELISA on coated human CD73-ECD (the text rounds this value to 0.018 µg/mL)
Method: as §2, §3

[4] = target: T1, CD73 on the surface of human cells; assay: cell-based or functional assay
[5] = target: T3, human recombinant CD73 enzyme (CD73 extracellular region) (human, UniProt P21589 27-549); assay: cell-based or functional assay
T3 sequence (looked up): T1 sequence (looked up)

[6] = target: T1, CD73 on the surface of human cells; assay: flow cytometry on NCI-H1299 cells
[7] = target: T1, CD73 on the surface of human cells; assay: Flow cytometry on NCI-H1299 cells
Method: as §1
The binding affinity of the humanized antibodies to NCI-H1299 cells was detected according to the method for determining the binding affinity of CD73 on the surface of tumor cells in Example 5.

[8] = target: T2, extracellular domain of human CD73 …; assay: ELISA, coated human CD73-ECD, method of Example 3
Method: as §2
(§4) The affinity of the humanized antibody to human and cynomolgus CD73-ECD was detected according to the ELISA determination method of Example 3.

[9] = target: T4, cynomolgus monkey CD73-ECD (cynomolgus monkey, UniProt A0A2K5V5U7 27-549); assay: ELISA, coated cynomolgus CD73-ECD, method of Example 3
T4 construct: also called cynomolgus CD73-ECD
T4 sequence: T1 sequence (looked up) with M199T, T350A, V466I
Method: as §2, §4

[10] = target: T2, extracellular domain of human CD73 …; assay: SPR as the filing names it (method of Example 2, ForteBio OCTET R2)
Method: Surface plasmon resonance (SPR) assay: Protein A sensor was used to immobilize the antibodies, with an immobilization height of about 1.5 nM. […] Affinity detection: equilibrium for 60 s, binding for 180 s, dissociation for 180 s, at a detection temperature of 25° C. Kinetic characterization analysis was performed using the ForteBio OCTET R2 system.
The affinity of the humanized antibody to the antigen was detected by the surface plasmon resonance (SPR) assay method in Example 2.

[11] = target: T2, extracellular domain of human CD73 …; assay: ForteBio Octet (the filing calls it SPR), by the method of Example 2 according to the text; sheet prints 'Loading Sample ID: FDYKSD-02-His'; traces labelled 50, 25, 12.5, 6.25, 3.13

EC50 [1]: 0.015 µg/mL
EC50 [2]: 0.018 µg/mL
EC50 [3]: 0.0179 µg/mL
B1: 5-E11 derived antibody 5-E11ASCS (VHH)
VHH: ALQLVESGGGLVQPGGSLRLSCEVSGFTLDYYNIGWFRQAPGKEREGVSSSSASGGSTYYADSVKGRFTISRDNAKNTVYLQMNSLKPEDTGVYYCAAYRGWHPSLDARVYDYWGQGTEVTVSS

EC50, reversal of the AMP inhibition of human T lymphocyte proliferation [4]: 0.024 µg/mL
IC50, inhibition of the catalytic function of CD73 enzyme on MDA-MB-231 cells [4]: 0.098 µg/mL
IC50, inhibition of the catalytic function of recombinant human CD73 enzyme [5]: 0.0187 µg/mL
EC50 [6]: 0.02 µg/mL
Max MFI [7]: 105000 MFI
EC50 [8]: 0.0025 µg/mL
EC50 [9]: 0.00188 µg/mL
Kd [10]: 0.638 nM
koff [11]: 0.00086 s⁻¹
kon [11]: 1.35e+06 M⁻¹ s⁻¹
B2: humanized antibody 3D7-HM9-FC1 (Fc fusion)
heavy: QRQLVESGGGLVQPGGSLRLSCAASGFLLDYYVIGWFRQAPGKEREGVSCISGSDRSTYYADSVKGRFTISRDNAKNTVYLQMSSLRAEDTAVYYCAADPSPVTVQAMCLPRFPVPYWGKGTLVTVSSEPKSSDKTHTCPPCPAPEFEGGPSVFLFPPKPKDTLMISRTPEVTCVVVDVSHEDPEVKFNWYVDGVEVHNAKTKPREEQYNSTYRVVSVLTVLHQDWLNGKEYKCKVSNKALPASIEKTISKAKGQPREPQVYTLPPSRDELTKNQVSLTCLVKGFYPSDIAVEWESNGQPENNYKTTPPVLDSDGSFFLYSKLTVDKSRWQQGNVFSCSVMHEALHNHYTQKSLSLSPGK

IC50, inhibition of the catalytic function of CD73 enzyme on MDA-MB-231 cells [4]: 0.126 µg/mL
EC50 [8]: 0.00209 µg/mL
EC50 [9]: 0.00206 µg/mL
B3: humanized antibody 3D7-HM9-FCWT (Fc fusion)
VHH: QRQLVESGGGLVQPGGSLRLSCAASGFLLDYYVIGWFRQAPGKEREGVSCISGSDRSTYYADSVKGRFTISRDNAKNTVYLQMSSLRAEDTAVYYCAADPSPVTVQAMCLPRFPVPYWGKGTLVTVSS
notes: 3D7-HM9 VH on an Fc called FCWT; not shown: FCWT Fc segment
